B1: Regulator of G-protein signaling 18 (Homo sapiens), Q9NS28 (parent)
chain: METTLLFFSQINMCESKEKTFFKLIHGSGKEETSKEAKIRAKEKRNRLSLLVQKPEFHEDTRSSRSGHLAKETRVSPEEAVKWGESFDKLLSHRDGLEAFTRFLKTEFSEENIEFWIACEDFKKSKGPQQIHLKAKAIYEKFIQTDAPKEVNLDFHTKEVITNSITQPTLHSFDAAQSRVYQLMEQDSYTRFLKSDIYLDLMEGRPQRPTNLRRRSRSFTCNEFQDVQSDVAIWL
B2: Regulator of G-protein signaling 4 (Homo sapiens), P49798 (parent)
chain: MCKGLAGLPASCLRSAKDMKHRLGFLLQKSDSCEHNSSHNKKDKVVICQRVSQEEVKKWAESLENLISHECGLAAFKAFLKSEYSEENIDFWISCEEYKKIKSPSKLSPKAKKIYNEFISVQATKEVNLDSCTREETSRNMLEPTITCFDEAQKKIFNLMEKDSYRRFLKSRFYLDLVNPSSCGAEKQKGAKSSADCASLVPQCA
B3: Regulator of G-protein signaling 17 (Homo sapiens), Q9UGC6 (parent)
chain: MRKRQQSQNEGTPAVSQAPGNQRPNNTCCFCWCCCCSCSCLTVRNEERGENAGRPTHTTKMESIQVLEECQNPTAEEVLSWSQNFDKMMKAPAGRNLFREFLRTEYSEENLLFWLACEDLKKEQNKKVIEEKARMIYEDYISILSPKEVSLDSRVREVINRNLLDPNPHMYEDAQLQIYTLMHRDSFPRFLNSQIYKSFVESTAGSSSES
B4: Regulator of G-protein signaling 16 (Homo sapiens), O15492 (parent)
chain: MCRTLAAFPTTCLERAKEFKTRLGIFLHKSELGCDTGSTGKFEWGSKHSKENRNFSEDVLGWRESFDLLLSSKNGVAAFHAFLKTEFSEENLEFWLACEEFKKIRSATKLASRAHQIFEEFICSEAPKEVNIDHETHELTRMNLQTATATCFDAAQGKTRTLMEKDSYPRFLKSPAYRDLAAQASAASATLSSCSLDEPSHT

Variants of: B1
Conditions: with gnao_rat Gnao1, P59215
Chain of gnao_rat Gnao1, P59215 (P59215 whole entry): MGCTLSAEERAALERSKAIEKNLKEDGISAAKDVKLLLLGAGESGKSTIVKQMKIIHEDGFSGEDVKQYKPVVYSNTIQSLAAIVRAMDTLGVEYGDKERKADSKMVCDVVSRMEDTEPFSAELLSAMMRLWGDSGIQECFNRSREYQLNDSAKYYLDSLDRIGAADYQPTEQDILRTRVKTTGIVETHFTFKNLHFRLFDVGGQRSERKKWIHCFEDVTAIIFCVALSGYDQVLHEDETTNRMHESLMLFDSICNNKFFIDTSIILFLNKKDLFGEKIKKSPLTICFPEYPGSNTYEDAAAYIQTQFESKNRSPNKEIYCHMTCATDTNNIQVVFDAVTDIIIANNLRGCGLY

Row | Variant | effect of a mutation on the interaction
1 | K141E;H156E;K158R | increasing interaction
2 | K141E;H156E;K158R;Q186K | increasing interaction
3 | H156E;K158R | increasing interaction
4 | Q186K | increasing interaction

Variants of: B2
Conditions: with gnao_rat Gnao1, P59215

Row | Variant | effect of a mutation on the interaction
5 | E126A;R134A;R166A | disrupting interaction
6 | N128S | disrupting interaction
7 | R134A | decreasing interaction
8 | R134A;R166A | decreasing interaction

Variants of: B3
Conditions: with gnao_rat Gnao1, P59215

Row | Variant | effect of a mutation on the interaction
9 | I143S;L144E;S145A;S150N;H183E;R184K;N192K | increasing interaction
10 | I143S;L144E;S145A;S150N;N192K | increasing interaction

Variants of: B4
Conditions: with gnao_rat Gnao1, P59215

Row | Variant | effect of a mutation on the interaction
11 | E90A | decreasing interaction
12 | E125A;E129A | decreasing interaction
13 | E125A;E129A;K173A | decreasing interaction
14 | E129A | decreasing interaction
